The target in this experiment is T1, recombinant RBD protein derived from the SARS-CoV-2 WT strain (SARS-CoV-2 wild type (Wuhan-Hu-1), UniProt P0DTC2).
T1 construct: also called WT-RBD; WT RBD
As to the kind of experiment: ELISA. To be noted: both partners purified. Background: An ELISA detects its analyte on a solid surface through an enzyme-linked reagent.

The values that follow come from PMC8847413 (Nature Communications, 2022).

B1: MAb 8D3 (IgG) (antibody, V domains shown)
VH: EVQLQQSGPELVKPGASVKISCKTSGYTFTEYTMYWVKQSHGKSLEWIGGINPNIGDTSYNQNFKGKATLTVDRSSSTAYMELRSLTSEDSAVYYCARDGYPYYYALDHWGQGTSVTVSS
VL: DIVMTQSQKFMSTSVGDRVSVTCKASQNVGTNVAWYQQKPGQSPKALIYSTSYRYSGVPDRFTGSGSGTDFTLTISNVQSEDLAEYFCQQYNSYPYTFGGGTKLEIK
notes: copies: 2 + 2
B1: the binding result is “binds”.

B2: MAb 2H2 (antibody, V domains shown)
VH: QVQLKQSGPSLVQPSQSLSITCTVSGFSLTSYGVHWVRQSPGKGLEWLGVMWRGGNTDYNAAFMSRLSITKDNSKSQVFFKMNSLQTDDTAIYYCAKNGGAHAMDFWGQGTSVTVSS
VL: NIVLTQSPASLAVSLGQRATISCRASESVDSYGNSFLHWYQQKPGQPPKLLIYLASNLESGVPARFSGSGSRTDFTLTIDPVEADDAATYYCQQNNEDPFTFGSGTKLEIK
notes: copies: 2 + 2
On to B2, for which the binding result is “binds”.

B3: MAb 3C1 (antibody, V domains shown)
VH: EVQLQESGPSLVKPSQTLSLTCSVTGDSITNGYWNWIRKFPGNKLEYMGYISYSGSTYYSPSLKSRISITRDTSKNQHYLQLNSVTSEDTATYYCASDYHGSKYYFDYWGQGTTLTVSS
VL: DIVMTQSHKFMSTSVGHRVSITCKASQDVGNDVAWYQQKPGQSPKLLIYWASTRHTGVPDRFTGSGSGTDFTLTISNVQSEDLADYFCQQYNRYPYTFGGGTKLEIK
notes: copies: 2 + 2
On to B3, for which the binding result was “binds”.
